Drawing on publication PMC5356271 (2017), this text covers percent of parent for two variants.

First the molecules themselves.
B1: HIV-1 Vif, wild type [HIV-1] / Flag-CBFβ (core-binding factor β), wild type [not stated] (parent complex)
chain 1: not shown
chain 2: MPRVVPDQRSKFENEEFFRKLSRECEIKYTGFRDRPHEERQARFQNACRDGRSEIAFVATGTNLSLQFFPASWQGEQRQTPSREYVDLEREAGKVYLKAPMILNGVCVIWKGWIDLQRLDGMGCLEFDEERAQQEDALAQQAFEEARRRTREFEDRDRSHREEMEVRVSQ

In this experiment the parent is B1. Nature of the experiment: co-immunoprecipitation (Flag IP) with immunoblot quantification; 293T cells treated with CBFβ-specific siRNA; MG132 (5 μM) for 16-h; read off a plot.
For the variant chain 2 F68A, the percent of parent is around 76 % WT CBFβ.

In the case of chain 2 I55A, the percent of parent was around 68 % WT CBFβ.
